Tests used:
Experiment in all cases: ITC
[1] = biological target: Jun bZIP R272A;Fos bZIP R144A (human;human, UniProt P05412;P01100 252-315;137-200, R272A|R144A)
[2] = biological target: Jun bZIP R270A;Fos bZIP R155A (human;human, UniProt P05412;P01100 252-315;137-200, R270A|R155A)
[3] = biological target: Jun bZIP K273A;Fos bZIP R155A (human;human, UniProt P05412;P01100 252-315;137-200, K273A|R155A)
[4] = biological target: Jun bZIP R270A;Fos bZIP R143A (human;human, UniProt P05412;P01100 252-315;137-200, R270A|R143A)
Chain of Jun bZIP R270A;Fos bZIP R143A (P05412 252-315 R270A, chain 1 of 2): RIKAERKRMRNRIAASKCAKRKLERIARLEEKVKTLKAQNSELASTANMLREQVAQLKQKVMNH
Chain of Jun bZIP R270A;Fos bZIP R143A (P01100 137-200 R143A, chain 2 of 2): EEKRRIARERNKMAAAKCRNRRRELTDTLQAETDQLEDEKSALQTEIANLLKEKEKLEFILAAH

[5] = biological target: Jun bZIP R272A;Fos bZIP R158A (human;human, UniProt P05412;P01100 252-315;137-200, R272A|R158A)
Chain of Jun bZIP R272A;Fos bZIP R158A (P05412 252-315 R272A, chain 1 of 2): as the sequence (P05412 252-315 R270A, chain 1 of 2) above, with A19R, R21A counted along it
Chain of Jun bZIP R272A;Fos bZIP R158A (P01100 137-200 R158A, chain 2 of 2): as the sequence (P01100 137-200 R143A, chain 2 of 2) above, with A7R, R22A counted along it

Jun-Jun bZIP K268A = Jun-Jun bZIP K268A (human, UniProt P05412 252-315, K268A)
Chain of Jun-Jun bZIP K268A (P05412 252-315 K268A): as the sequence (P05412 252-315 R270A, chain 1 of 2) above, with K17A, A19R counted along it

[6] = biological target: Jun bZIP R261A;Fos bZIP R144A (human;human, UniProt P05412;P01100 252-315;137-200, R261A|R144A)
Chain of Jun bZIP R261A;Fos bZIP R144A (P05412 252-315 R261A, chain 1 of 2): as the sequence (P05412 252-315 R270A, chain 1 of 2) above, with R10A, A19R counted along it
Chain of Jun bZIP R261A;Fos bZIP R144A (P01100 137-200 R144A, chain 2 of 2): as the sequence (P01100 137-200 R143A, chain 2 of 2) above, with A7R, R8A counted along it

[7] = biological target: Jun bZIP K258A;Fos bZIP K148A (human;human, UniProt P05412;P01100 252-315;137-200, K258A|K148A)
Chain of Jun bZIP K258A;Fos bZIP K148A (P05412 252-315 K258A, chain 1 of 2): as the sequence (P05412 252-315 R270A, chain 1 of 2) above, with K7A, A19R counted along it
Chain of Jun bZIP K258A;Fos bZIP K148A (P01100 137-200 K148A, chain 2 of 2): as the sequence (P01100 137-200 R143A, chain 2 of 2) above, with A7R, K12A counted along it

[8] = biological target: Jun bZIP R261A;Fos bZIP K153A (human;human, UniProt P05412;P01100 252-315;137-200, R261A|K153A)
Chain of Jun bZIP R261A;Fos bZIP K153A (P05412 252-315 R261A, chain 1 of 2): as the sequence (P05412 252-315 R270A, chain 1 of 2) above, with R10A, A19R counted along it
Chain of Jun bZIP R261A;Fos bZIP K153A (P01100 137-200 K153A, chain 2 of 2): as the sequence (P01100 137-200 R143A, chain 2 of 2) above, with A7R, K17A counted along it

[9] = biological target: Jun bZIP K273A;Fos bZIP R157A (human;human, UniProt P05412;P01100 252-315;137-200, K273A|R157A)
Chain of Jun bZIP K273A;Fos bZIP R157A (P05412 252-315 K273A, chain 1 of 2): as the sequence (P05412 252-315 R270A, chain 1 of 2) above, with A19R, K22A counted along it
Chain of Jun bZIP K273A;Fos bZIP R157A (P01100 137-200 R157A, chain 2 of 2): as the sequence (P01100 137-200 R143A, chain 2 of 2) above, with A7R, R21A counted along it

[10] = biological target: Jun bZIP K258A;Fos bZIP R144A (human;human, UniProt P05412;P01100 252-315;137-200, K258A|R144A)
Chain of Jun bZIP K258A;Fos bZIP R144A (P05412 252-315 K258A, chain 1 of 2): as the sequence (P05412 252-315 R270A, chain 1 of 2) above, with K7A, A19R counted along it
Chain of Jun bZIP K258A;Fos bZIP R144A (P01100 137-200 R144A, chain 2 of 2): as the sequence (P01100 137-200 R143A, chain 2 of 2) above, with A7R, R8A counted along it

[11] = biological target: Jun bZIP R263A;Fos bZIP K148A (human;human, UniProt P05412;P01100 252-315;137-200, R263A|K148A)
Chain of Jun bZIP R263A;Fos bZIP K148A (P05412 252-315 R263A, chain 1 of 2): as the sequence (P05412 252-315 R270A, chain 1 of 2) above, with R12A, A19R counted along it
Chain of Jun bZIP R263A;Fos bZIP K148A (P01100 137-200 K148A, chain 2 of 2): as the sequence (P01100 137-200 R143A, chain 2 of 2) above, with A7R, K12A counted along it

[12] = biological target: Jun bZIP R259A;Fos bZIP R157A (human;human, UniProt P05412;P01100 252-315;137-200, R259A|R157A)
Chain of Jun bZIP R259A;Fos bZIP R157A (P05412 252-315 R259A, chain 1 of 2): as the sequence (P05412 252-315 R270A, chain 1 of 2) above, with R8A, A19R counted along it
Chain of Jun bZIP R259A;Fos bZIP R157A (P01100 137-200 R157A, chain 2 of 2): as the sequence (P01100 137-200 R143A, chain 2 of 2) above, with A7R, R21A counted along it

[13] = biological target: Jun bZIP R259A;Fos bZIP K148A (human;human, UniProt P05412;P01100 252-315;137-200, R259A|K148A)
Chain of Jun bZIP R259A;Fos bZIP K148A (P05412 252-315 R259A, chain 1 of 2): as the sequence (P05412 252-315 R270A, chain 1 of 2) above, with R8A, A19R counted along it
Chain of Jun bZIP R259A;Fos bZIP K148A (P01100 137-200 K148A, chain 2 of 2): as the sequence (P01100 137-200 R143A, chain 2 of 2) above, with A7R, K12A counted along it

[14] = biological target: Jun bZIP R272A;Fos bZIP R155A (human;human, UniProt P05412;P01100 252-315;137-200, R272A|R155A)
Chain of Jun bZIP R272A;Fos bZIP R155A (P05412 252-315 R272A, chain 1 of 2): as the sequence (P05412 252-315 R270A, chain 1 of 2) above, with A19R, R21A counted along it
Chain of Jun bZIP R272A;Fos bZIP R155A (P01100 137-200 R155A, chain 2 of 2): as the sequence (P01100 137-200 R143A, chain 2 of 2) above, with A7R, R19A counted along it

[15] = biological target: Jun bZIP R261A;Fos bZIP R158A (human;human, UniProt P05412;P01100 252-315;137-200, R261A|R158A)
Chain of Jun bZIP R261A;Fos bZIP R158A (P05412 252-315 R261A, chain 1 of 2): as the sequence (P05412 252-315 R270A, chain 1 of 2) above, with R10A, A19R counted along it
Chain of Jun bZIP R261A;Fos bZIP R158A (P01100 137-200 R158A, chain 2 of 2): as the sequence (P01100 137-200 R143A, chain 2 of 2) above, with A7R, R22A counted along it

Chain of Jun bZIP R270A;Fos bZIP R155A (P05412 252-315 R270A, chain 1 of 2): as the sequence (P05412 252-315 R270A, chain 1 of 2) above
Chain of Jun bZIP R270A;Fos bZIP R155A (P01100 137-200 R155A, chain 2 of 2): as the sequence (P01100 137-200 R143A, chain 2 of 2) above, with A7R, R19A counted along it
Chain of Jun bZIP R272A;Fos bZIP R144A (P05412 252-315 R272A, chain 1 of 2): as the sequence (P05412 252-315 R270A, chain 1 of 2) above, with A19R, R21A counted along it
Chain of Jun bZIP R272A;Fos bZIP R144A (P01100 137-200 R144A, chain 2 of 2): as the sequence (P01100 137-200 R143A, chain 2 of 2) above, with A7R, R8A counted along it
Chain of Jun bZIP K273A;Fos bZIP R155A (P05412 252-315 K273A, chain 1 of 2): as the sequence (P05412 252-315 R270A, chain 1 of 2) above, with A19R, K22A counted along it
Chain of Jun bZIP K273A;Fos bZIP R155A (P01100 137-200 R155A, chain 2 of 2): as the sequence (P01100 137-200 R143A, chain 2 of 2) above, with A7R, R19A counted along it

B1: TRE duplex 15-mer (dsDNA)
DNA 1: CGCGTGACTCACCCC
DNA 2: GGGGTGAGTCACGCG
Question: B1 was tested. Which Kd [1] did it give?
Answer: 3720 ± 360 nM

Question: What about the Kd [2] of the same binder?
Answer: 28900 ± 470 nM

Question: And the Kd [3]?
Answer: 6790 ± 420 nM

Question: And the Kd [4]?
Answer: 1600 ± 50 nM

Question: And the Kd [5]?
Answer: 620 ± 40 nM

Question: What about the Kd (Jun-Jun bZIP K268A) of the same binder?
Answer: 400 ± 20 nM

Question: And the Kd [6]?
Answer: 1840 ± 80 nM

Question: And the Kd [7]?
Answer: 660 ± 20 nM

Question: What about the Kd [8] of the same binder?
Answer: 610 ± 50 nM

Question: What about the Kd [9] of the same binder?
Answer: 1300 ± 80 nM

Question: What about the Kd [10] of the same binder?
Answer: 2780 ± 50 nM

Question: What about the Kd [11] of the same binder?
Answer: 1130 ± 10 nM

Question: And the Kd [12]?
Answer: 3050 ± 120 nM

Question: What about the Kd [13] of the same binder?
Answer: 2260 ± 180 nM

Question: What about the Kd [14] of the same binder?
Answer: 2670 ± 130 nM

Question: And the Kd [15]?
Answer: 760 ± 20 nM
